{"source": "patent US20110212091", "key": {"[1]": {"system": "FGFR4 R388, V5-His tagged (FGFR4R388-V5-His)"}, "[2]": {"system": "FGFR4 G388, V5-His tagged (FGFR4G388-V5-His)"}}, "data": [{"substance": "HA-tagged MT1-MMP", "values": [{"measurement": "MT1-MMP tyrosine phosphorylation", "setting": "[1]", "result": "repeatedly detected"}, {"measurement": "MT1-MMP tyrosine phosphorylation", "setting": "[2]", "result": "repeatedly detected"}]}]}
